Target: c-MYC:MAX bHLHZip heterodimer (MYC 352-437, MAX 22-102) (human, UniProt P01106-1 352-437; P61244 22-102)
Assay: NMR titration; unlabeled MYC:MAX dimer titrated into 15N-labeled INI1 RPT1 (147 uM); 1H,15N HSQC; fast exchange; shifts fitted to a single-site binding curve; 25 °C
Conditions: both partners purified

c-MYC:MAX bHLHZip heterodimer (MYC 352-437, MAX 22-102), sequence (P01106 367-452, chain 1 of 2): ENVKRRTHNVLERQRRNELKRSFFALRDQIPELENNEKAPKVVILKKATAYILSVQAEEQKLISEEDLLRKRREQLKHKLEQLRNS
c-MYC:MAX bHLHZip heterodimer (MYC 352-437, MAX 22-102), sequence (P61244 22-102, chain 2 of 2): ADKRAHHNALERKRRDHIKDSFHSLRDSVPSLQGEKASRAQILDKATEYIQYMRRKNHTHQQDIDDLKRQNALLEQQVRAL

Kd: 44 ± 6 µM
B1: INI1/hSNF5 RPT1 (residues 184-258) (domain or fragment, human, UniProt Q12824 184-258, looked up)
chain: EVLVPIRLDMEIDGQKLRDAFTWNMNEKLMTPEMFSEILCDDLDLNPLTFVPAIASAIRQQIESYPTDSILEDQS

Reference: PMC6398391 (The FEBS journal, 2018)
